Here are results for nine molecules from patent publication US20260028391A1 (HUMABS BIOMED, published 2026).

Numbering of substitutions follows the chain as printed.

The labels stand for the following.
B1: MPK92 (antibody, V domains shown)
VH: EVQLVESGGGLVKPGGSLRLSCEASGISLSGYYMIWIRQAPGKGLEWISSISSSSNYIDYADSVRGRFTISRHNGQNTLYLQMNSLRVEDTAVYFCATEQTPSPGPFELWGQGILVTVSS
VL: QSVLTQPPSVSGAPGQRVTIFCTGTTSNIGTGYDVHWYQQFPGTSPKLLIYRNTNRPSGVPDRFSGSRSGSSASLAIAGLQAEDEADYYCQSFDRSVNGWIFGGGTKVTVL
notes: VH and VL only
B2: MPK86 (antibody, V domains shown)
VH: EVQLVESGGGLVKPGGSLRLSCAASGFSISGYYMIWIRQAPGRGLEWISDISASSTYTDYADSVKGRFTISRDNGQNTVYLQMNNLRADDTALYYCATEQTPSPGPFDLWGQGTLVTVSS
VL: QSVVTQPPSVSGAPGQRVIISCSGRSSNIGAGYDVHWYQHFPGTSPKLLIYRNTNRPSGVPDRFSASTSATSASLAITGLQADDEADYYCQSYDRNLGGWVFGGGTKLTVL
notes: VH and VL only
B3: MPK10 (antibody, V domains shown)
VH: EVQLVQSGGGLVKPGGSLRLSCAASGFRFSGYFMIWIRQAPGKGLEWISFISGGSSYTNYADSVKGRFTISRDNVQNTLFLDMNSLRAEDTGVYFCATEQVPTPGPFDLWGQGSLVTVSS
VL: QSVLTQPPSVSGVPGQRVIISCTGSSSNIGAGYDVHWYQQFPGRSPTLLIYRNTNRPSGVPDRFSGFQSGSSASLAITGLQAEDEADYYCQSFDRTLDGWAFGGGTKVTVL
notes: VH and VL only
B4: MPK18 (antibody, V domains shown)
VH: EVQLVESGGGLVKPGGSLRLSCAASGFTISGYYMIWIRQAPGKGLEWISYISGSSSYTNFGASVKGRFTISRDNGQNTVHLQMTNLRADDTALYYCATEQTPSPGPFDLWGQGTLVTVSS
VL: QSVVTQPPSVSGAPGQRVTISCSGTSSNIGAGYDVHWYQQFPGTSPKLLISRNFNRPSGVPARFSGSKSGSSASLAIAGLQAEDEADYYCQSYDRSLGGWVFGGGTKVTVL
notes: VH and VL only
B5: MPK67 (antibody, V domains shown)
VH: B4 VH with F60Y
VL: B4 VL with V4L, A82P
notes: VH and VL only
B6: MPK30-v1 (antibody, V domains shown)
VH: EVQLVESGGGLVKPGGSLRLSCAASGFTISGYYMIWIRQAPGKGLEWISFISASSSYINYADSVRGRFTISRDNGRSTVYLQMNSLRPEDTAVYYCATEQVPSPGPFDLWGQGTLVTVSS
VL: B4 VL with V4L, S23T, T44R, S51Y, F54T, A62D, G98D, K107T, V108L
notes: VH and VL only
B7: MPK36-v3 (antibody, V domains shown)
VH: EVQLVESGGGLVKPGGSLRLSCAASFTISGYYMIWIRQAPGKGLEWISYISGSSTYTNYADSVKGRFTISRDNGQNTLYLHMTSLRADDTALYYCATEQTPSPGPFDLWGQGTLVTVSS
VL: B4 VL with S2T, S51Y, A62D, R95K, G98D
notes: VH and VL only
B8: MPK9 (antibody, V domains shown)
VH: EVQLVESGGGLVKPGGSLRLSCAASGFTISGYGMSWFRQAPGKGLEWVSSISASSSYIYYADSTKGRFTISRDNGKQSLYLQMNSLRAEDTAVYYCATSPIEPPYFDLWGRGTLVTVSS
VL: QSVLTQPPSVSGAPGQRVTISCTGSSSNIGAGYDVHWYQQLPGKAPKLLIYGNNNRPSGVPDRFSGSNSGASASLAITGLQAEDEADYFCQSYDRRLSGPVFGRGTKLTVL
notes: VH and VL only
B9: MPK73 (antibody, V domains shown)
VH: EVQLVESGGGLVKPGGSLTLSCAASGFSISGYGMNWVRQAPGRGLEWVASISASSTYIYYADSMKGRFTISRDNGKTSLYLQMKSLRAEDTAVYYCARAPIEPPYFDLWGRGTLVTVSS
VL: B8 VL with S26N, Q40H, L48V, T78S, V101I, R104G
notes: VH and VL only

The assay has as its target RSV fusion glycoprotein (RSV-F) (respiratory syncytial virus). The assay is described as follows: SPR; F protein loaded on streptavidin sensors, mAb in solution.
Protocol: Binding affinity of mAbs for RSV-F protein, MPV-F D280 protein, and MPV-F N280 F variant protein was assessed using surface plasmon resonance (SPR).
In turn, B1 gave a Kd of 0.098 nM.
As to B2, the affinity, expressed as Kd, was 0.001 nM.
As for B3, the Kd came to 0.012 nM.
The value for B4 was 0.001 nM; that for B5 was 0.0059 nM; that for B6 was 0.01 nM.
The value for B7 was 0.0056 nM.
B8 showed a Kd of 0.04 nM.
In the case of B9, the Kd was determined as 0.012 nM.

A word on the Kd: it is the constant that tells how readily two partners part at equilibrium.
